Test [1] deals with Antiparallel leucine zipper partner peptide Z′ fused to the C-terminal fragment of superpositive GFP (CspGFP, amino acids 158-231), expressed from pMRBAD-Z′-CspGFP. Kind of test: cell-based or functional assay.
Test [2] deals with Antiparallel leucine zipper partner peptide Z′ fused to the C-terminal fragment of the stabilized GFP variant sg100 (Csg100GFP), expressed from pMRBAD-Z′-Csg100GFP. The test is described as follows: cell-based or functional assay.

The results in this text go back to patent US20140011214A1.

In test [1], “N-terminal fragment of superpositive GFP (NspGFP, amino acids 1-157) fused to antiparallel leucine zipper peptide Z, expressed from pET11a-Z-NspGFP” had a cell fluorescence 1 hour after induction at 25° C., against split-frGFP Z/Z′ fusions (% more fluorescent) of 34; a cell fluorescence after 24 hours at 37° C., against split-frGFP Z/Z′ fusions (% more fluorescent) of 24; a maximum mean cell fluorescence, 12 hours at 25° C., against split-frGFP Z/Z′ fusions of 22 % brighter; a mean cell fluorescence (flow cytometry), 1 hour after induction at 25° C. of 5 fold. In test [1], this substance came in with a mean cell fluorescence (flow cytometry), 2 hours after induction at 25° C. of 15 fold; a mean cell fluorescence (flow cytometry), 3 hours after induction at 25° C. of 28 fold; a mean cellular fluorescence (flow cytometry) in E. coli after 12 hours at 25° C., compared to uninduced cells of 75 fold.

In test [2], “N-terminal fragment of the stabilized GFP variant sg100 (Nsg100GFP) fused to antiparallel leucine zipper peptide Z, expressed from pET11a-Z-Nsg100GFP” displayed a mean cell fluorescence (flow cytometry), 3 hours after induction at 25° C. of 1.2 fold and a mean cellular fluorescence (flow cytometry) in E. coli after 12 hours at 25° C., compared to uninduced cells of 2.3 fold.
